Test results: US20250026823A1

What was measured:
[1] = target: CLEC12A expressed on cells (CLEC12A-transfected CHO cells; HL60 cells) (UniProt Q5QGZ9); assay: flow cytometry on HL60 cells
[2] = target: CLEC12A expressed on cells (CLEC12A-transfected CHO cells; HL60 cells) (UniProt Q5QGZ9); assay: flow cytometry on CLEC12A-transfected CHO cells
[3] = target: extracellular domain of CLEC12A (amino acids 75 to 275) coupled to a His-tag (Sino Biological, cat.no. 11896-H07H) (UniProt Q5QGZ9); assay: ELISA, extracellular domain of CLEC12A coated at 2 µg/ml
Sequence of extracellular domain of CLEC12A (amino acids 75 to 275) coupled to a His-tag (Sino Biological, cat.no. 11896-H07H) (Q5QGZ9 65-265 limits assumed): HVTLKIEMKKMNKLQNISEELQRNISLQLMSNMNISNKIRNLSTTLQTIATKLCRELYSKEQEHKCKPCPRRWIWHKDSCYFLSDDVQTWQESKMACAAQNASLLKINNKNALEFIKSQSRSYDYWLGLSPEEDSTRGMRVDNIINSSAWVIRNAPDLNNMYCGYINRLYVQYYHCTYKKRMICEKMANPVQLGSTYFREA

Sequence of CLEC12A expressed on cells (CLEC12A-transfected CHO cells; HL60 cells) (Q5QGZ9 whole entry, the tested form may be a part): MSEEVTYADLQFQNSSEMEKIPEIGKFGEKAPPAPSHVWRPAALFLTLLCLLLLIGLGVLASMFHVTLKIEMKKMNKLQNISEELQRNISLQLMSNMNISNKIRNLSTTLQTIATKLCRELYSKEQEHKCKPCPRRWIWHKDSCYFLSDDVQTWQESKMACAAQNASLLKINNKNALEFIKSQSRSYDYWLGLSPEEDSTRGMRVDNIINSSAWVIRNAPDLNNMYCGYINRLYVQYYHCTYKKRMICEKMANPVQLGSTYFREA

Substance: irrelevant IgG1 isotype control mAb (antibody)
- mean fluorescent intensity [1]: 116
- mean fluorescent intensity [2]: 289
- optical density [3]: 0.127
